The source of these data is US20050059087A1 (Amgen, published 2005).

Assay [1] addresses T1, EGFRvIII, full length, expressed by transfected cells (NR6 M, H1477, 300.19/EGFRvIII) (human, UniProt P00533 298-1210). As to the kind of experiment: cell-based or functional assay.
Assay [2] addresses T2, EGFRvIII-rabbit Fc fusion protein (human; rabbit, UniProt P00533 298-645).
T2 construct: made in 293F cells; also called EGFRvIII-RbFc; EGFRvIII-Rab Ig Fc fusion protein; not shown: rabbit IgG Hinge-CH2-CH3 (721 bp fragment)
Briefly: ELISA, minilipofection supernatant titrated 1:2 on EGFRvIII-Rab Ig Fc fusion protein (1.5 ug/ml). Here is the method: The secretion ELISA tests were performed as follows. […] The plates were washed five times with dH₂O. Recombinant antibodies were titrated 1:2 for 7 wells from the undiluted minilipofection supernatant. The plates were washed five times with dH₂O. A goat anti-human IgG Fc-specific HRP-conjugated antibody was added at a final concentration of 1 μg/mL for 1 hour at RT for the secretion plates and binding plates detected with 1 μg/ml Rb anti Hu Fc for 1 hour at room temperature. The plates were washed five times with dH₂O. The plates were developed with the addition of TMB for 30 minutes and the ELISA was stopped by the addition of 1 M phosphoric acid. Each ELISA plate was analyzed to determine the optical density of each well at 450 nm.

In assay [3] the target is T1, EGFRvIII, full length, expressed by …. Briefly: FACS on NR6 M cells, antibody at 0.25 µg/ml with SS Alexa anti-human IgG Fab, 37° C. for 1 hr, no glutathione (total cell-associated fluorescence). Here is the method: XenoMax derived IgG1 recombinant antibodies were expressed, purified and quantitated as described previously. Antibodies were further assayed for their ability to internalize the EGFRvIII receptor in NR6 M cells. […] The cells were washed with cold 10% FCS in PBS and secondary antibody (SS Alexa antihuman IgG Fab) at 3 μg/ml Fab was added and incubated for 7 mins on ice. The cells were washed with cold 10% FCS in PBS once and then resuspended in cold media. Next, two sets of the triplicate were incubated at 37° C. and the remaining set was incubated at 4° C. for 1 hr. After that the cells incubated at 4° C. and one set of the cells incubated at 37° C. were treated with glutathione (as previously mentioned) for 1 hr on ice. Then the cells were washed and resuspended in 100 μl of cold 1% FCS in PBS and analyzed by FACS. The % internalization was calculated from the geometric mean obtained from the FACS analysis [(mean at 37° C. with glutathione—mean at 4° C. with glutathione)/(mean at 37° C. without glutathione—mean at 4 C with glutathione)].

Assay [4] concerns the target T3, Pep-3, NH2-LEEKKGNYVVTDHG-OH (human).
T3 construct: Free peptide used in Biacore and KinExA (MW 1590 Da)
T3 peptide: H-LEEKKGNYVVTDHG-OH
As to the kind of experiment: Biacore 2000 SPR, mAb immobilised, pep-3 analyte. The source says: The first step in these examples involved the immobilization of 5,600 resonance units (RU) to 8,000 RU of each mAb tested to one flow cell (Fc) of a CM5 sensor chip using standard EDC/NHS coupling chemistry. […] Three CM5 sensor chips were used in total to immobilize all mutant mAbs with a unique mAb immobilized to each flow cell. […] Biacore 2000 optical biosensors were used for all studies.
In general terms: SPR reads the build-up and loss of mass on a sensor chip optically.

In assay [5] the target is T4, EGFRvIII peptide-OVA (PEP3 14-mer conjugated to ovalbumin) (human, also: conjugated to OVA, chemistry not given here).
T4 construct: also called VIII-pep-OVA; muEGFr
T4 peptide: LEEKKGNYVVTDHC
As to the kind of experiment: XenoMax screening.

No end group written: not given here.

B1: SC-EGFRvIII-XG2-150 (antibody, human IgG1, V domains shown)
VH: QVQLQQSGPGLVKPSQTLSLTCAISGDSVSSYSSAWNWIRQSPSRGLEWLGRAYHRSRWYYEYAVSVKSRINITPDTSKNQFSLQLNSVTPEDTAVYYCARGSRFDYWGQGTLVTVSS
VL: DIVMTQTPLSSPVTLGQPASISCRSSQSLVHRDGNTYLSWLQQRPGQPPRLLIYKISNRFSGVPDRFSGSGAGTDFTLKISRVEAEDVGIYFCMHTTQFPWTFGQGTRVEIK
notes: XenoMax-derived from an XMG2 mouse; also called sc150; 182D5
On to B1, for which, in assay [1], the “% internalization” value was 20%; the “FACS Geometric mean, With glutathione 4° C.” value was 4.66 geometric mean; the “FACS Geometric mean, With glutathione 37° C.” value amounted to 7.78 geometric mean. Besides, the “Titer, antigen binding” value in assay [2] is above 64 reciprocal dilution. The “FACS Geometric mean (without glutathione, 37° C.)” value in assay [3] turned out to be 20.3 geometric mean.

B2: SC-EGFRvIII-XG2-170 (antibody, human IgG1, V domains shown)
VH: QVQLQQSGPGLVKPSQTLSLTCAISGDSVSSNNAAWNWIRQSPARGLEWLGRTYYRSKWYNDYVVSVKSRITINPDTSKNQFSLQLNSVTPEDTAVYYCVRATAFDYWGQGTLVTVSS
VL: AIVLTQTPLSSPVTLGQPASISCRSSQSLVHRDGNTYLSWLQQRPGQPPRLLIYKISNRFSGVPDRFSGSGAGTDFTLKISRVEPDDVGVYYCMHTTQLPWTFGQGTKVEIK
notes: XenoMax-derived from an XMG2 mouse; also called SC170; sc170
For B2, in assay [1], the “% internalization” value is 20.1%; the “FACS Geometric mean, With glutathione 4° C.” value was 4.67 geometric mean; the “FACS Geometric mean, With glutathione 37° C.” value amounted to 7.75 geometric mean. For the same molecule, in assay [2], the “Titer, antigen binding” value is above 64 reciprocal dilution. In addition, in assay [3], the “FACS Geometric mean (without glutathione, 37° C.)” value is 20 geometric mean.

B3: SC-EGFRvIII-XG1-318 (antibody, human IgG1, V domains shown)
VH: QVQLVESGGGVVQPGRSLRLSCVASGFTLSSYGMHWVRQAPGKGLEWVAVTSYDGSKKDYADSVKGRFTISRDNSKNTLYLQMNSLRAEDTAVYYCVSEGYCDSSSCYKYYYYGMDVWGQGTTVTVSS
VL: DIVMTQSPLSLPVTPGEPASISCRSSQSLLYRNGNNYLDWYLQRPGQSPQLLIYLGSNRASGVPDRFSGSGSGTDFTLKISRVEAEDVGVYYCMQALQTPRTFGQGTKVEIK
notes: XenoMax-derived; also called 141A10
As for B3, in assay [2], the “Titer, antigen binding” value was 64 reciprocal dilution.

B4: SC-EGFRvIII-XG1-333 (antibody, human IgG1, V domains shown)
VH: QVQLVESGGGVVQPGRSLRLSCVASGFTLSSYGMHWVRQALGKGLEWVAVTSYDGSKKDYADSVKGRFTISRDNSKNTLYLQMNSLRAEDTAVYYCVSEGYCDSTSCYKYYYYGMDVWGQGTTVTVSS
VL: DIVMTQSPLSLPVTPGEPASISCRSSQSLLYRNGNNYLDWYLQRPGQSPQLLIYLGSNRASGVPDRFSGSGSGTDFTLKISRVEAEDVGVYYCMQALQTPRTFGQGTKVEIK
notes: XenoMax-derived
For the molecule B4, the “Titer, antigen binding” value in assay [2] is above 64 reciprocal dilution.

B5: SC-EGFRvIII-XG1-211 (antibody, V domains shown)
VH: QVQLVESGGGVVQPGRSLRLSCVASGFTLSSYGMHWVRQAPGKGLEWVAVTSYDGSKKDYADSAKGRFTISRDNSKNTLYLQMNSLRAEDTAVYYCVSEGYCSSSSCYKYYYYGMDVWGQGTTVTVSS
VL: DIVMTQSPLSLPVTPGEPASISCRSSQSLLYRNGNNYLDWYLQRPGQSPQLLIYLGSNRASGVPDRFSGSGSGTDFTLKISRVEAEDVGVYYCMQALQTPRTFGQGTKVEIK
notes: also called SC211; sc211
B5: in assay [1], the “% internalization” value was found to be 21.6%; the “FACS Geometric mean, With glutathione 4° C.” value turned out to be 4.78 geometric mean; the “FACS Geometric mean, With glutathione 37° C.” value amounted to 8.23 geometric mean. Also, the “Titer, antigen binding” value in assay [2] was above 64 reciprocal dilution. For the same molecule, the “FACS Geometric mean (without glutathione, 37° C.)” value in assay [3] came out at 20.8 geometric mean.

B6: SC-EGFRvIII-XG1-123/124 (antibody, human IgG1, V domains shown)
VH: QVQLVESGGGVVQPGRSLRLSCAASGFTLSSYGMHWVRQAPGKGLEWVAVMSYDGSKEDYADSVKGRFTISRDNSENTLYLQMNSLRAEDTAVYYCVSEGYCSSRSCYKYYYYGMDVWGQGTTVTVSS
VL: DIVMTQSPLSLPVTPGEPASISCRSSQSLLYRNGNNYLDWYLQKPGQSPQLLIYLGSNRASGVPDRFSGSGSGTDFTLNISRVEAEDVGHYYCMQALQTPRTFGQGTKVEIK
notes: also called 129A7
As to B6, the “Titer, antigen binding” value in assay [2] is above 64 reciprocal dilution.

B7: SC-EGFRvIII-XG1-342 (antibody, human IgG1, V domains shown)
VH: QVQLVESGGGVVQPGRSLRLSCVASGFTLSSYGMHWVRQAPGKGLEWVAVTSYDGSKKDYADSVKGRFTISRDNSKNTLYLQMNSLRAEDTAVYYCVSEGYCDSTSCYKYYYYGMDVWGQGTTVTVSS
VL: DIVMTQSPLSLPVTPGEPASISCRSSQSLLYRNGNNYLDWYLQRPGQSPQLLIYLGSNRASGVPDRFSGSGSGTDFTLKISRVEAEDVGVYYCMQALQTPRTFGQGTKVEIK
notes: XenoMax-derived; also called 124D4
As for B7, in assay [2], the “Titer, antigen binding” value is above 64 reciprocal dilution.

B8: 13.1.2 variant L99H-9.2 (antibody, V domains shown)
VH: QVQLVESGGGVVQPGRSLRLSCAASGFTFSSYGMHWVRQAPGKGLEWVAVIWYDGSNKYYVDSVKGRFTISRDNSKNTLYLQMNSLRAEDTAVYYCARDGWQQLAPFDYWGQGTLVTVSS
VL: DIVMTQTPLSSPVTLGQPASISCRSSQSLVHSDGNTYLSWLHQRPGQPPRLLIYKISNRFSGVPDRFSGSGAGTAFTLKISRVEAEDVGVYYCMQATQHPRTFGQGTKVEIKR
notes: also called Leu99His; 99His
In general, Kd refers to a measure of binding affinity in units of concentration. The low end stands for higher affinity, the high end for lower affinity. Usually koff stands for a measure of how fast the partners let go of each other. In general, kon refers to the second-order rate constant of association. Higher therefore signals fast association. With B8, in assay [4], binding was put at a Kd of 395 nM, the off-rate (koff) came to 0.033 s⁻¹ and the kon amounted to 83400 M⁻¹ s⁻¹.

B9: 13.1.2 variant L217Q-10.1 (antibody, V domains shown)
VH: QVQLVESGGGVVQPGRSLRLSCAASGFTFSSYGMHWVRQAPGKGLEWVAVIWYDGSNKYYVDSVKGRFTISRDNSKNTLYLQMNSLRAEDTAVYYCARDGWQQQAPFDYWGQGTLVTVSS
VL: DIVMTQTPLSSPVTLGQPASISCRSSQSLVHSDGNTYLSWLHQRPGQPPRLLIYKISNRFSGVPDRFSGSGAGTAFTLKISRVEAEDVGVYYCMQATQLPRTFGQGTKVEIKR
notes: also called Leu217Gln; 217Gln
For B9, in assay [4], the equilibrium dissociation constant (Kd) is 92 nM, the koff came out at 0.019 s⁻¹ and the kon worked out at 204000 M⁻¹ s⁻¹.

B10: 13.1.2 variant L217N-2.1 (antibody, V domains shown)
VH: QVQLVESGGGVVQPGRSLRLSCAASGFTFSSYGMHWVRQAPGKGLEWVAVIWYDGSNKYYVDSVKGRFTISRDNSKNTLYLQMNSLRAEDTAVYYCARDGWQQNAPFDYWGQGTLVTVSS
VL: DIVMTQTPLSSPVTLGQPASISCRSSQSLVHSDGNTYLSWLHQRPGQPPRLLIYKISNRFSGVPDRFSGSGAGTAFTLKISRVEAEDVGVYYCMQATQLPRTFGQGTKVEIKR
notes: also called Leu217Asn; 217Asn
In assay [4], B10 registered a Kd of 185 nM, a koff of 0.04 s⁻¹ and an on-rate (kon) of 220000 M⁻¹ s⁻¹.

B11: 13.1.2 variant N35G-3.1 (antibody, V domains shown)
VH: QVQLVESGGGVVQPGRSLRLSCAASGFTFSSYGMHWVRQAPGKGLEWVAVIWYDGSNKYYVDSVKGRFTISRDNSKNTLYLQMNSLRAEDTAVYYCARDGWQQLAPFDYWGQGTLVTVSS
VL: DIVMTQTPLSSPVTLGQPASISCRSSQSLVHSDGGTYLSWLHQRPGQPPRLLIYKISNRFSGVPDRFSGSGAGTAFTLKISRVEAEDVGVYYCMQATQLPRTFGQGTKVEIKR
notes: also called Asn35Gly; 35Gly
In assay [4], B11 displayed a dissociation constant Kd of 204 nM, a koff of 0.03 s⁻¹ and a kon of 150000 M⁻¹ s⁻¹.

B12: 13.1.2 variant Y172R-1.2 (antibody, V domains shown)
VH: QVQLVESGGGVVQPGRSLRLSCAASGFTFSSYGMHWVRQAPGKGLEWVAVIWYDGSNKRYVDSVKGRFTISRDNSKNTLYLQMNSLRAEDTAVYYCARDGWQQLAPFDYWGQGTLVTVSS
VL: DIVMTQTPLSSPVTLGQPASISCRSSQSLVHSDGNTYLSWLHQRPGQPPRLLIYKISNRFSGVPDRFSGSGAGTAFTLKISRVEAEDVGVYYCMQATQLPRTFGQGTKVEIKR
notes: also called Tyr172Arg; 172Arg
B12: in assay [4], the affinity, expressed as Kd, was 927 nM; the koff turned out to be 0.076 s⁻¹; the on-rate (kon) was 82200 M⁻¹ s⁻¹.

B13: SC-EGFRvIII-XG1-250 (antibody, V domains shown)
VH: EGQLLESGGGWVQPGESLRLSCAASGFTFSSYAMSWVRQAPGKGLEWVSAISGSGGSTNYADSVKGRFTISRDNSKNTLYLQVNSLRVEDTAVYYCAGSSGWSEYWGQGTLVTVSS
VL: DIQMTQSPSSLSASVGDSVTITCRTSQGIRKNLGWYQQKPGKAPKRLIYAASSLQSGVPSRFSGSGSGTEFTLTISRLQPEDFATYYCLQHHSYPLTFGGGTRVEIR
notes: also called SC250; sc250
Regarding B13, in assay [5], the binding result is “binds”. Besides, in assay [1], the “% internalization” value was 16.7%; the “FACS Geometric mean, With glutathione 4° C.” value is 4.84 geometric mean; the “FACS Geometric mean, With glutathione 37° C.” value turned out to be 8.07 geometric mean. Further, the “Titer, antigen binding” value in assay [2] was above 64 reciprocal dilution. The “FACS Geometric mean (without glutathione, 37° C.)” value in assay [3] amounted to 24.1 geometric mean.
